# Experimental data reported in article PMC12221289.
# What was measured:
# Experiment in all cases: DRaCALA
# [1] = system: Rcu mt-EF-Tu1 (Romanomermis culicivorax); conditions: 3'-aminoacylated with Phe (flexizyme); DRaCALA of EF-Tu:GTP:Phe-tRNA ternary complexes, 2 ul spotted on nitrocellulose, n>=3; binding buffer, pH and temperature not in the material
# [2] = molecular target: Bta mt-EF-Tu D384A D384A (Bos taurus) (UniProt P49410); conditions: 3'-aminoacylated with Phe (flexizyme); DRaCALA of EF-Tu:GTP:Phe-tRNA ternary complexes, 2 ul spotted on nitrocellulose, n>=3; binding buffer, pH and temperature not in the material
# [3] = molecular target: Bta mt-EF-Tu D384K D384K (Bos taurus) (UniProt P49410); conditions: 3'-aminoacylated with Phe (flexizyme); DRaCALA of EF-Tu:GTP:Phe-tRNA ternary complexes, 2 ul spotted on nitrocellulose, n>=3; binding buffer, pH and temperature not in the material
# [4] = system: Cel mt-EF-Tu1 (Caenorhabditis elegans); conditions: 3'-aminoacylated with Phe (flexizyme); DRaCALA of EF-Tu:GTP:Phe-tRNA ternary complexes, 2 ul spotted on nitrocellulose, n>=3; binding buffer, pH and temperature not in the material
# [5] = system: Cel mt-EF-Tu1 K386D (Caenorhabditis elegans); conditions: 3'-aminoacylated with Phe (flexizyme); DRaCALA of EF-Tu:GTP:Phe-tRNA ternary complexes, 2 ul spotted on nitrocellulose, n>=3; binding buffer, pH and temperature not in the material
# [6] = system: Rcu mt-EF-Tu1 K380A (Romanomermis culicivorax); conditions: 3'-aminoacylated with Phe (flexizyme); DRaCALA of EF-Tu:GTP:Phe-tRNA ternary complexes, 2 ul spotted on nitrocellulose, n>=3; binding buffer, pH and temperature not in the material
# [7] = system: Rcu mt-EF-Tu1 K380D (Romanomermis culicivorax); conditions: 3'-aminoacylated with Phe (flexizyme); DRaCALA of EF-Tu:GTP:Phe-tRNA ternary complexes, 2 ul spotted on nitrocellulose, n>=3; binding buffer, pH and temperature not in the material
# [8] = system: Rcu mt-EF-Tu1 K380D/ΔC50 (Romanomermis culicivorax); conditions: GTP; apparent Kd; 3'-aminoacylated with Phe (flexizyme); DRaCALA of EF-Tu:GTP:Phe-tRNA ternary complexes, 2 ul spotted on nitrocellulose, n>=3; binding buffer, pH and temperature not in the material
# [9] = system: Rcu mt-EF-Tu1 K380E (Romanomermis culicivorax); conditions: 3'-aminoacylated with Phe (flexizyme); DRaCALA of EF-Tu:GTP:Phe-tRNA ternary complexes, 2 ul spotted on nitrocellulose, n>=3; binding buffer, pH and temperature not in the material
# [10] = system: Rcu mt-EF-Tu1 K380R (Romanomermis culicivorax); conditions: 3'-aminoacylated with Phe (flexizyme); DRaCALA of EF-Tu:GTP:Phe-tRNA ternary complexes, 2 ul spotted on nitrocellulose, n>=3; binding buffer, pH and temperature not in the material
# [11] = system: Rcu mt-EF-Tu1 region F chimera (Romanomermis culicivorax); conditions: 3'-aminoacylated with Phe (flexizyme); DRaCALA of EF-Tu:GTP:Phe-tRNA ternary complexes, 2 ul spotted on nitrocellulose, n>=3; binding buffer, pH and temperature not in the material
# [12] = system: Rcu mt-EF-Tu1 ΔC15 (Romanomermis culicivorax); conditions: GTP; apparent Kd; 3'-aminoacylated with Phe (flexizyme); DRaCALA of EF-Tu:GTP:Phe-tRNA ternary complexes, 2 ul spotted on nitrocellulose, n>=3; binding buffer, pH and temperature not in the material
# [13] = system: Rcu mt-EF-Tu1 ΔC18 (Romanomermis culicivorax); conditions: 3'-aminoacylated with Phe (flexizyme); DRaCALA of EF-Tu:GTP:Phe-tRNA ternary complexes, 2 ul spotted on nitrocellulose, n>=3; binding buffer, pH and temperature not in the material
# [14] = system: Rcu mt-EF-Tu1 ΔC3 (Romanomermis culicivorax); conditions: 3'-aminoacylated with Phe (flexizyme); DRaCALA of EF-Tu:GTP:Phe-tRNA ternary complexes, 2 ul spotted on nitrocellulose, n>=3; binding buffer, pH and temperature not in the material
# [15] = system: Rcu mt-EF-Tu1 ΔC50 (Romanomermis culicivorax); conditions: 3'-aminoacylated with Phe (flexizyme); DRaCALA of EF-Tu:GTP:Phe-tRNA ternary complexes, 2 ul spotted on nitrocellulose, n>=3; binding buffer, pH and temperature not in the material
# [16] = system: Tbr mt-EF-Tu1 (Trichinella britovi); conditions: 3'-aminoacylated with Phe (flexizyme); DRaCALA of EF-Tu:GTP:Phe-tRNA ternary complexes, 2 ul spotted on nitrocellulose, n>=3; binding buffer, pH and temperature not in the material
# [17] = system: Tbr mt-EF-Tu1 S381D (Trichinella britovi); conditions: 3'-aminoacylated with Phe (flexizyme); DRaCALA of EF-Tu:GTP:Phe-tRNA ternary complexes, 2 ul spotted on nitrocellulose, n>=3; binding buffer, pH and temperature not in the material
# [18] = system: Tbr mt-EF-Tu1 S381K (Trichinella britovi); conditions: 3'-aminoacylated with Phe (flexizyme); DRaCALA of EF-Tu:GTP:Phe-tRNA ternary complexes, 2 ul spotted on nitrocellulose, n>=3; binding buffer, pH and temperature not in the material
substance,measurement,setting,value
GCGGAUUUAGCUCAGUUGGGAGAGCGCCAGACUGAAGAUCUGGAGGUCCUGUGUUCGAUCCACAGAAUUCGCACCA [Phe-tRNAPhe (canonical)],Kd,[1],22.6 nM
AGUCAAAUAGCUUAACCUUAAAGCACAAAUCUUUUAAAUUUGAAGAUGUAUCCACUUUGACUACCA [Phe-mt-tRNALys (T-armless)],Kd,[1],5.2 nM
Phe-mt-tRNASer(UCU) (D-armless),Kd,[1],66.4 nM
Phe-mt-tRNAIle (armless),Kd,[2],60.1 nM
same,Kd,[3],96.8 nM
same,Kd,[4],17.1 nM
same,Kd,[5],62.6 nM
same,Kd,[1],5.8 nM
same,Kd,[6],33.4 nM
same,Kd,[7],70.4 nM
same,Kd,[8],350 nM
same,Kd,[9],150 nM
same,Kd,[10],16.5 nM
same,Kd,[11],222 nM
same,Kd,[12],40.7 nM
same,fold Kd increase vs wild type (fold Kd increase vs wt),[13],8.7
same,fold Kd increase vs wild type (fold Kd increase vs wt),[14],1.5
same,fold Kd increase vs wild type (fold Kd increase vs wt),[15],14
same,Kd,[16],4.4 nM
same,Kd,[17],7.1 nM
same,Kd,[18],3 nM
